Results on 16 sequences are retold here after a protein production outcome set (Wang et al. 2014).

The series is described as follows: label from the status in PepcDB records.
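Further: failed if final PepcDB status was selected cloned or expressed and not failed if soluble or beyond.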

Take “MMAQRSLFQCESSVDEELDRMEIRTLTRYGENRRRDKGVPIECDCNAKVVVVTSLDPVTTGKLFFSCPYEISDGPGQGCGFKRWWTVALCDEFDMIKEETTEMKKDLEAANKRVESLAEKIFLMEKKFETLEKKYESLNKYL”: the protein production entry was “failed”.

Turning to “MMAVESSKRLASETPVSLFIPYSHHITDTIISTKNAEYLSIWKIDGRSHQSASEEDIFQWARELNNTLRGIASANLSLWTHIVRRRVYEYPDSTFDKMFCYQLDEKYRQSFTGYNLMVNDLYLTVVFQPIADKVMSFFSQHERETLDQKKMRQESCIKALNDINRTLGQSFKRYGGELLGTYEKNGHAYSSALEFLAMLVNGEYSPMPICRDRFADYMSINRPFFSKWGALGELRTTSGIRRFGMMEIKEYDTTTKPGQFNVLLESDFEFVLTQSFSVLSRHAAKDYLQRHQRNLIDARDVATSQIEQIDEALNQLISGHFVMGEHHCTLTIYGDTVQQVRDYMAKANAALLEVAVLPKPVDLAIEAGYWAQLPANWKWRPRPAPITSLNFLSFSSFHNFMSGKPTGNPWGPAVTILKTISKTPLYFNFHASKLEEDATDKRLLGNTAIIGQSGSGKTVLLGFLLAQAQKFKPTTVVFDKDRGMEIAIRAMGGRYLTFKPGRQSGFNPFQLPPTQDNLTFLKQFVKKLAEASSEITHRDEEEINQAVMSIMSSNINPSLRRLSFLLQFLPNPHLNDYNSHPSVHTRLIKWCEGGDYGWLFDNPTDALDLSTHQIYGFDITEFLDNPETRTPVMMYLLYRTEGMISGQRFMYIFDEFWKPLQDPYFEDLAKNKQKTIRKQNGIFVFATQEPTDALESNIAKTLIQQCATYIFLANPKANYEDYTEGFKLTDAEFELIKGIGEFSRQFLIKQGDQSALAELNLGKFHVTIDGKTVEQNFSDELLVLSGTPDNAELVENIIAEVGDDPALWLPVFLQHIKTNRRTT”, the protein production result is “failed”.

On to “MMDSHCRVRAPGAAQPADCPPPTTQHAALAARLGHARLHTLYDQATWSEGPAWWEAQRTLVWSDVVGRRVLGWREDGAVDVLLDATAFTNGNAVDTQQRLVHCEHGRRAITRSEVDGRAHLLVGRFEGKRLNSPNDLIVARDGAIWFTDPPFGLRKPSQGCPGPQELDHHGVYRLPPDGGALQCMVNLDHPNGLAFSPDERVLYVSQTPEGGPGAPEITALDWHDGALHNRRRFAVVPEGLPDGFCVDCQGWLWSSSGAGVCVFDSGGHVLGLVPTPHTASNCTFDLVQRRLFITGGSTLWLLDLQR”, for which the protein production result was “failed”.

Consider “MMDSVKNASENISRRLSRTWDHISDGWRELVHHGSDALTHFVHRKGEEDKGQEAAASTPAFPRWSILAGDMEETDREIVVRIEVPGMEKKDFEISIEGKTLSLRGEKRFERDTNDSKYHVMERAYGVFQRTLPLPVEVNEDKAEADYKNGVLTVRLPKLNVEKRRFISIS”, for which the protein production entry is “failed”.

For “MMELIVAQAAASAAELPFLLLQAAAVVGMVSMLMLLQRHIAFDDVRYKIYYGVVFGATGFLLTLLVSEFIQLPSKPYIRSDLLFLAGVVGSWQGGLISLALISAGRFLFGGPALFGAAFLDMSVISAFGIAIYGWMRRRRLTELGMREIAGVFAIRIFAALFAICLTYGLGMVGQDVFLSNVGRRIVGATVGLPMIACLFLLLRSEARAREAVKKREVAARTDSLTGLPNRRALKDHIEMTTRQAPAVPHALLLIEIVNIADVAAYQGDDWADLFWPKLAREICDGENGLLSKFNDPRSFMFGDATLAVVIEGVSLEKSESAGLVLHLHEGLIAFFRSAEAGPVPHLKIGAANLEMVSHQNVASFLRHLSLALRRSENPVQIFPFSFAEKAARDEGVRQMLVRWIKNGKPPIFYQPKFEIHNRRMIGAEALLRAIDTHGQALSPYYVLEIAERHRLLVEFEWSTIEAVVRDLAELPGLDPDFHLAVNISASSFATACFADRVVALLQEMTVPAHRLSIEVTEMSRMPTTDSVQQNFDTLIAAGVRLALDDFGTGYAALTLLARFPFEEVKIDQWMTSRLDQARFRDAVVLAFESAERYGAKLVTEGIETEEQCRILMQMGIRFGQGYLYSPAVPLDRLLPRRAYA”, the protein production entry is “failed”.

Regarding “MMENPQQGLEMRSIVVAYYREQAVSTLVKTLIFIVTLLFIGRSFSEEKNYDMQQLSAQQAYENGRLLRAQFKNLAAREYLKYAADLGEPNAAYLYAMEVANYRTTIRTPPESQHYLLLAAQGGSRQAMRVLYQNGEWLRAAERSLWQQTYYDTLIELGSREPSQAAYELALFHQKDNPKLAQHYLTIAVEFEHPAALMLMAQQIEQGEGSYPMPGSRATEARKTYLKAAQTGYIPAIRNYIQLLENKGKYQDAYYWRQQAVQRGDLTSLVAMGGILSGQSEFYRFVEPDLKQAKAYFNRYLEVAGSDRLSHVYQNSQKQLLDISMQLNGHEKEIAEKIELQLENYQPFFNHDAYWDN”, the protein production entry is “failed”.

As to “MMERFDISAQDLKSFGFTTLFCIVIALATMSIWGGLFGEHLAISFSYGYSAFFSAQWIARRWPELSKRLVNILSLSCAVVLGTSSAYLWLRHYPGFDEFSAYKPIIFLGFIFSAVCFLYFYSHEQKILAQGALEAARRRQSEQEKALLLSQLKQLQSQMEPHFLFNTLANINALIAVEPYKAQLMLEKLTELLRGTMRLRRTNTGDLREEMQLIDAYLGIQKIRLGERLEYTLPELSELGTLGMPPMLIQPLVENAVSHGIEPKAEGGTIRVRIEVADDWFELSVEDNGMGLSDTPKGNGIALQNVRDRLSGLFGHEGLLTVAQNCSGGVTATLRIRLHHLQGLQRSFYDYSQARSPQS”, the protein production entry is recorded as “failed”.

Consider “MMFGAIIQQIVLGISLAAPVGPINIEMLKRGIERGFWHAWVVGIGGMTADILFMLLIYFGLSSLFMYTYVQAFMYCTGFFLLFYLGFQSVKQGISQSNMEYKKEEVGGLKQSFMAGFLIAISNPLNLVFWFGIYGSTLSSLLTKVTKQEAFLYSLCIIVGIILWNVNIAFSVHFGRTLLKQKALGYITAGAGIILVGYSIHFAYKALQLFT”, for which the protein production entry is “failed”.

Take “MMFHEGTNVAGNAELIPIRLFGTPRCEAVRDAFFPSKGFALTAALILAPNQSLSRQYAASLLWENVEQKRALGNLRQLILRLQKLPSEDDAILLTEGNDLKAGALAQRTDLAIFLAGARAEDPMRRLNALLEFGGDLLEGLEAGQDHLYLWLLSERRRLKDLFFSSYTQLLEELTRFGRASSNDIARLAECACKIEPEREETYRAAMAAYARVGNISACEGMYQLLMEQLRQEDRSPEAETVALKRRIQSLAATIAGPVEPEEGSRRQVLAKPRVAFVRPARVDGQPVPTVIHAFVEDVANSLVRYRTFTVLSPHSTFALAHDRVDDSYAMLRADYRIISTVFDDSRMSVALIEDASGEIVWSLEAVLTERHIHAAFRLLSKQVAAALAREIERLQVEPDRNHSGEAYRQLLEGQQLLRGKCDLPLLRRARSLFRKAVDLDHSLAVARARVAQSLQLEWLMLGGNDPHLLHRAKAEADASVEIDPALGVGHWMCAVVALYQRDFDISAEKFFEAEALAPNSADLLLQHADALAHFGDAEIAWDKFQQAINLNPLAPDIYWWAGASIAFKRQDYGTAVELCGRMENDEPALRVLTASHALHGDLLAARESGSRLQENYPGMTAREISSLSPDRDPIANERFYHALRLAGIK”: the protein production entry was “failed”.

Take “MMFNYIYTTFLTILYTVVMSLSLSLYLKEREKNYLLVSLYFLLLILNGLIVTMSETFQIFANDYNQQFMVNPIIETIYYLATFGIALKLVTELFEEKITTYQYGIYIVFALWLIVVPFMANSALKVWLYYFPSQLLTVYLGIYLLIHNRKMIPKSSLGKYVKLIGSLAIFFGLAIVVEDTFIIYFRDIYHTNMLKIHNRNVSEDIFHISLCLIAIKYFLTNYQKSNEEVAVIDIRNEKKETNDSVSNFEEDEYYFERFMDKYGITQREGEILELLLQRKHNQEIANQLYLSLGTVKTHTHNIFIKLQVEKRSEVCEVWEAFEKSELTQ”: the protein production result is “failed”.

As for “MMGDSVIYYVEQADEPVNRADERARKTFKYFWRELFWERRRIISALDFAMVKVPFFQDGEDGEICEHMWIDDIYFDGLYIYGVLNNEPGELTNVEQGESVCVPVDDISDWMFVCNGIPYGGFTIQAMRGQMTEEERTEHDAAWGIDFGDPGQILLVYEEKEHPENLEEHPMCRNCIDDFRQQLSQNSDYLREQDEDGYTPLHHEAIAGNALMVQAMLEYGANPASTTSEGYTALDFACLTGWQNVADLLEPRH”, the protein production entry is “failed”.

As to “MMIKIIREMPHGVAALCLIQAFSTFSYAVQYSSLALFITKQLGIANLSANSIVGLFLSFSYIFQLIGGVIGSRFISNRLLFVTTILIQNMGLFFLAQANPSLLNIGLSLFMVGSGLNVTSSNSMLTQCFIPQDDRRESAFFLSYAGMNVGYCIGYIACGFFDYSNQYQYLLYASILTNSIALLIIIKNWAYLGDKNFPLPNLTKRNWYFIKNILAIAFITFLIPFMRVCFEFANFCNGLVIITCLFMFLIIFILGLKQKSSSDRKKMMAYLILAISSVLFWMIYLTGPMGVTLFVKNNVDKHLFSFELATQWIKNINPVVIIFGAPIMSMLINKLKAKGFHVSAPVQFSCSFVFLALSFLCLIFGIICSNSYGYISIYWIIGHHILQGMSELLLGPVGYALIGRIAPPKLQGILMGTWMLVIGVAASFSQYFSNAMVQSESVDPLITNQDFLTAFKQLGLWSLLCAALLYFVSGKLTRIINGTKDNKSVNESKALPMPYSN”, the protein production entry is recorded as “failed”.

For “MMIMNNFDEKKLIQEFSKIQSELSPRIKLENNFQIEEIQFIAGVDLAYWNVNKTKYGTCCIVIIDYGTKEVVEKVYSYGEIPIPYIPGFLAFRELPLIIEAVKKLTKQPDIYFFDGNGYLHYRHMGIATHASFLLNKPTIGVAKSYLKIRDVDFIMPENLKGSYTDIVINNEVYGRTLRTTKNVKPIFVSCGNWIDLDTSTEIVMNCINNESRLPIPVRLADLETHKMRKKLMEGLEHHHHHH”, the protein production result was “failed”.

“MMKNKVNIDTIIYLVLIITSLIFIYAGSFLFEEGSFIGNRGNNRTVDADTATDRNKPFPVVHKAVSTEINGIKQKINILEIDLSSGGVKIKPALAFDTIYGFQSLKDIAINNNAYAAVNAGFFYSYGEPSGMVVIDGKVYTKSTGKYPVFVVQGKNAFLSEIKSNIWILHGNRRIAADDINREGKPGETVVYTPVFGPTNRADKLHTSYIVENNRVARKFRGDTECKIPSDGMVITFYEPISSEEKFEVGDWIGIDIDPDFGPGFQAYECGSWLVRDGQVVAVDRDDWVGLLTNRDPRTAIGVKHDGKVVLVTVDGRQPGYSVGLSSRELAGYLLTLGIKDAAMLDGGASTQMIVQNKTVNRLPARERMLGGGIVVVVDEDL”: the protein production entry was “failed”.

Consider “MMKRVAVTGAAGRVGTLLRPLLRSHFEHLSLIDLQEPDELGENENFVRADFTKLDEATAALKDIDGVIHLAGIASGTDMNAILHANVLGTYNLYEAARINKVQRVVYASSNHATGFYPRGQLVSPLDPMRPDSPYGLSKCWGELVAGLYYDTSGIRSLSIRIGNAGTYPNSERSIAIWISARDLAQLVRIGLSHPLIAATVVYGVSDTEEKWWENDLATRLGYQPQDRPRDHALIEEGSEGPVALAFQGGGFCEINHDGTIRMRDADGLAKSPETVE”, for which the protein production result is listed as “failed”.

In the case of “MMKSLGSIRRSFAPWADPASKPFISVKNVTKKFGDFTAVDDLSLNIYTREFFALLGASGCGKSTLLRMLAGFEQPTSGEIILDGQSLAGIPPYRRPVNMMFQSYALFPHMTVENNVAFGLKQDGMPKADIAERVAQMLKLVKLEKFAKRKPHQLSGGQRQRVALARSLAKRPKVLLLDEPLGALDKKLREETQFELMDLQQELGLTFVVVTHDQEEAMTMADRIAVMSHGKVVQVATPAEIYEAPNSRFVADFIGDVNIFDGKVTSAEDGYIRVETTGGIPVRMASPEKPGNGAKAAVAIRPEKIRIGRQPPAHAPVNAAEGEIWDIGYLGDMTVFHIRLKDGKVVKASSLNAVRAVEDPLGYDQQVWISFGDDAGVVLKD”, the protein production result is “failed”.
